Experimental data: patent US20190382498A1

Biological target: mutant membrane-bound TNFα on stably transfected CHO cells (B-220 cells) (UniProt P01375)
Experiment: FACS, anti-CD19 beads with TNFα-transfected CHO cells

UniProt P01375, sequence (P01375 whole entry, change not shown): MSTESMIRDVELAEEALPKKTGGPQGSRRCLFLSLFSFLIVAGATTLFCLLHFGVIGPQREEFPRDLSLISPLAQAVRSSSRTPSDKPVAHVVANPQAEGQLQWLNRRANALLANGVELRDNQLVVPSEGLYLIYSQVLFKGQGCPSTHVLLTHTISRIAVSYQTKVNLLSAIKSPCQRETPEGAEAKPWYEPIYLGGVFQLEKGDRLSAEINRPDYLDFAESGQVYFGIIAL

#Events (CHO cells bound to anti-CD19 beads, gate P4): 6 events | #Events (unbound beads, gate P2): 558 events | % Parent (gate P4): 0.1% | % Total (gate P4): 0.1%
Substance: APC-labeled unrelated antibody (anti-CD19) coated on beads
